# Data published in the supplement of paper PMC10567573.
# B1: TPRG1 (parent)
# chain: ETIQGFWLLTKIDHWNNEKERILL
# B2: ETS1 (parent)
# chain: YVRDRADLNKDKPVIPAAALAGYT
# Variants of: B1
# Assay: protein stability index of a GFP-peptide fusion (GPS, HEK-293T) (PSI 1-6); higher = more stable
# Settings: c terminus: a fixed tail appended
# 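Further: lentivirally expressed fusions sorted by FACS into six bins by GFP to DsRed ratio, PSI derived from sequencing read proportions per bin multiplied by bin number.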
row,Variant,protein stability index
1,L23P,1.95
2,L23Q,1.78
3,L23R,1.77
4,L23S,3.2
5,L23T,2.42
6,L23V,3.52
7,L23W,3.52
8,L23Y,4.45
9,L24C,2.36
10,L24G,4.41
11,L24H,4.13
12,L24K,2.24
13,L24M,2.21
14,L24N,3.07
15,L24P,2.8
16,L24Q,3.61
17,L24V,2.5
18,L24W,2.52

# Variants of: B2
# Assay: as above
# Settings: c terminus: a fixed tail appended
row,Variant,protein stability index
1,A17E,2.19
2,A18F,1.83
3,D4K,2.07
4,T24R,2.1
5,D7Y,2.37
6,P16A,3.14
7,K10D,2.58
8,A18H,2.18
9,Y1D,4.43
10,N9E,1.98
11,P16E,2.05
12,V14H,2.23
13,A18E,1.88
14,N9S,1.77
15,D7T,3.92
16,R3L,1.55
17,L20F,2.8
18,L20W,3.22
19,K12P,1.95
20,G22M,1.63
21,A21I,2.42
22,D7W,2.52
23,A19V,3.93
24,P16Y,2.98
25,P13A,1.53

row,Variant,protein stability index
1,P13R,3.04
2,I15P,2.63
3,Y1S,4.24
4,A21K,2.08
5,Y23S,1.52
6,D11F,2.42
7,G22P,2.01
8,Y23M,1.89
9,Y1T,4.03
10,A17S,2.25
11,D4E,1.79
12,L8I,2.64
13,L20Y,3.18
14,D11Y,2.59
15,Y1N,4.3
16,A19K,2.9
17,R3H,1.77
18,T24A,2.37
19,R3W,1.68
20,K10P,2.6
21,D7V,3.53
22,T24S,1.98
23,A17P,1.79
24,A17W,3.98
25,A17C,2.97

row,Variant,protein stability index
1,A18T,1.93
2,R3K,2.56
3,D11G,3.03
4,A18D,2.21
5,A17G,3.1
6,R5M,1.56
7,P16L,2.52
8,A6V,2.29
9,A19N,2.17
10,A21L,3.03
11,D4C,3.5
12,A21R,2.07
13,T24I,2.37
14,V2H,2.46
15,Y23Q,1.86
16,A21F,3.51
17,T24Y,2.11
18,Y23A,2.15
19,V14L,2.79
20,R5F,3.08
21,A6D,1.8
22,A19S,1.86
23,K12V,2.47
24,Y1Q,4.41
25,K12R,2.08

row,Variant,protein stability index
1,D11K,1.77
2,A6R,1.72
3,A17V,1.63
4,A6E,2.27
5,N9W,3.77
6,N9T,2.75
7,V14K,2.34
8,I15W,2.77
9,I15F,1.8
10,D7R,3.02
11,A21Y,2.74
12,A19M,1.63
13,V2Y,3.5
14,V14N,2.34
15,D7I,3.04
16,D11C,2.46
17,L20A,2.06
18,P13V,2.77
19,A21N,2.14
20,L20G,2.02
21,P13D,1.63
22,P13I,1.88
23,A18G,2.35
24,Y23N,2.34
25,V2A,4.01

row,Variant,protein stability index
1,R3N,2.43
2,V2L,3.69
3,D4G,2.47
4,L20I,2.04
5,A17H,2.15
6,P13F,2.85
7,I15C,2.84
8,A18R,1.93
9,T24P,2.77
10,Y23L,2.58
11,V2F,2.88
12,K12E,1.79
13,D7M,2.6
14,A19P,2.04
15,P16T,2.14
16,A18S,2.73
17,P16M,2.56
18,N9G,2.29
19,V14P,1.92
20,Y23G,1.73
21,A18V,1.09
22,N9M,1.96
23,K10W,2.19
24,A21T,2.52
25,D4S,1.77

row,Variant,protein stability index
1,K10A,2.58
2,D7A,2.05
3,K10S,1.59
4,D11W,2.56
5,A17F,1.76
6,L8V,2.31
7,R5H,1.95
8,V14T,2.66
9,D11A,2.28
10,K12N,2.29
11,A18Y,2.19
12,P16Q,2.37
13,G22L,1.85
14,A21M,1.45
15,D4N,3.01
16,V2Q,2.93
17,R5E,2.36
18,P16K,2.13
19,L8A,2.17
20,I15E,1.77
21,T24V,1.74
22,Y1R,3.88
23,V2S,3.76
24,I15L,2.16
